Experimental data published in article PMC2173498 (The Journal of Cell Biology, 2002).

Molecular target: the molecule itself
Assay: SEC

B1: Nucleoplasmin-M9 (other)
chain: MASTVSNTSKLEKPVSLIWGCELNEQDKTFEFKVEDDEEKCEHQLALRTVCLGDKAKDEFNIVEIVTQEEGAEKSVPIATLKPSILPMATMVGIELTPPVTFRLKAGSGPLYISGQHVAMEEDYSWAEEEDEGEAEGEEEEEEEEDQESFGNYNNQSSNFGPMKGGNFGGRSSGPYGGGGQYFAKPRNQGGYG
stoichiometry N: 10
